The record followed here is US20180030116A1 (Amgen, published 2018).

Residue numbers refer to the chain shown, from its start. Names may count otherwise. Like-named read-outs stand apart in the source and are kept apart here.

Experiment in all cases: cell-based or functional assay
Experiment [1] has as its target T1, MMP2 (human, UniProt P08253 30-660).
T1 sequence (looked up): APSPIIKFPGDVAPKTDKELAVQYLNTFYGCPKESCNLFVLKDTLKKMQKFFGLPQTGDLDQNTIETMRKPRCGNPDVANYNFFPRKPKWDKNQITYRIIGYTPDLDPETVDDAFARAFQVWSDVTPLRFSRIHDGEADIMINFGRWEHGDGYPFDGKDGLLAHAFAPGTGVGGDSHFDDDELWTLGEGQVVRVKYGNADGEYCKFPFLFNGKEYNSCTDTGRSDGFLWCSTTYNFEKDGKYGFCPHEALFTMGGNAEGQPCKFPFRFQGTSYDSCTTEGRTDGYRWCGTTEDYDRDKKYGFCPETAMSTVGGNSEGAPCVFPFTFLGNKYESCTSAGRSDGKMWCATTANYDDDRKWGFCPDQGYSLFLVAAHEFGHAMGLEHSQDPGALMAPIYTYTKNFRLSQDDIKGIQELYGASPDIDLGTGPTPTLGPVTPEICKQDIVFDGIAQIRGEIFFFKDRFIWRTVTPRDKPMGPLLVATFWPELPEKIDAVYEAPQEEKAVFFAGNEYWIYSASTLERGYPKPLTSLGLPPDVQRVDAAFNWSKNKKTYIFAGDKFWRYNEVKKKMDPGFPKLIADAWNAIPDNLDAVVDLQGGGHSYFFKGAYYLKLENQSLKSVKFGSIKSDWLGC

Experiment [2] has as its target T2, MMP9 (human, UniProt P14780 107-457, limits assumed).
For another experiment, the target named is MMP9 (human) (UniProt P14780).
Chain of MMP9 (human) (P14780 107-457 limits assumed): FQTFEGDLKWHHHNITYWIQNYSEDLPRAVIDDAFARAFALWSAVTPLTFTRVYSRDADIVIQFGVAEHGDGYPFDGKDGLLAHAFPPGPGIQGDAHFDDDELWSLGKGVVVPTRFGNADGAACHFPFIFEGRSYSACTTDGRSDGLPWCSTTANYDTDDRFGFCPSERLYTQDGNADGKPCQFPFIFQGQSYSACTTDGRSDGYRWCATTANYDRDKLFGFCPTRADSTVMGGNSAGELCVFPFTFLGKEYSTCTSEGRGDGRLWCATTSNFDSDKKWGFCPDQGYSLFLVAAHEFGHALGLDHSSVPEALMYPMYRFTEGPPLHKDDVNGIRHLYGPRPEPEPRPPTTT
The next experiment concerns the target MMP2 (human) (UniProt P08253).
Experiment [3] addresses T1, MMP2. This is another data set of the same source.
In experiment [4] the target is T2, MMP9. This is another data set of the same source.
The target of experiment [5] is TNF alpha converting enzyme (TACE) (UniProt P78536).
Chain of TNF alpha converting enzyme (TACE) (UniProt P78536) (P78536 215-671 limits assumed): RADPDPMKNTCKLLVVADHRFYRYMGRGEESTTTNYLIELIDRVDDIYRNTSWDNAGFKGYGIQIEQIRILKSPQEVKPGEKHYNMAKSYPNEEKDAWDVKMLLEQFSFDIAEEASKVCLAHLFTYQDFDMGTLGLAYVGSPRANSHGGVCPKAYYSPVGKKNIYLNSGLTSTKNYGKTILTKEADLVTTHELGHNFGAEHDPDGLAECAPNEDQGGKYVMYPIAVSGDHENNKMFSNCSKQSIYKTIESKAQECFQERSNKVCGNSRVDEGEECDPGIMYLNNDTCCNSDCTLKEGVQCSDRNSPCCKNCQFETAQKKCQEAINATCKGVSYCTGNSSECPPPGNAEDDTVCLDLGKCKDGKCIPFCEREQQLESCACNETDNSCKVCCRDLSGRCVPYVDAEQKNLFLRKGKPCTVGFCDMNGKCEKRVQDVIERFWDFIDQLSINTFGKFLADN
Experiment [6] concerns the target T1, MMP2. The source holds these as a separate data set.
In experiment [7] the target is T2, MMP9. The source holds these as a separate data set.
The target in experiment [8] is TNF alpha converting enzyme (TACE) (UniProt P78536 215-671, limits assumed).
Chain of TNF alpha converting enzyme (TACE) (UniProt P78536 215-671, limits assumed) (P78536 215-671 limits assumed): as above
The target of experiment [9] is T1, MMP2. This is another data set of the same source.
Experiment [10] has as its target T2, MMP9. This is another data set of the same source.

T2 sequence (P14780 107-457 limits assumed): as the sequence (P14780 107-457 limits assumed) above

With “TIMP-3 [H78N, Q80T, K94N, E96T, D110N, K112T, R138T] (SEQ ID NO:26) fused to IgG (from UniProt P35625 24-211)”, the MMP2 EC50 (inhibition of MMP activity, FRET peptide substrate) in the experiment with MMP2 [1] was 14 nM. Besides, the MMP9 EC50 (inhibition of MMP activity, FRET peptide substrate) with MMP9 [2] came to 26 nM.
With “N-TIMP3 fused to HSA (from UniProt P02768 25-609)”, the MMP9 EC50 (inhibition of MMP activity, FRET peptide substrate) in the experiment with MMP9 (human) was found to be 36.5 nM. For the same molecule, in the experiment with MMP2 (human), the MMP2 EC50 (inhibition of MMP activity, FRET peptide substrate) stood at 38.7 nM.
“TIMP-3 [H78N, Q80T, K94N, E96T, D110N, K112T, R138T] (SEQ ID NO:26) fused to HSA (from UniProt P02768 25-609)”: the MMP9 EC50 (inhibition of MMP activity, FRET peptide substrate) with MMP9 (human) is 5.1 nM. The same molecule returned an MMP2 EC50 (inhibition of MMP activity, FRET peptide substrate) with MMP2 (human) of 1.4 nM.

B1: TIMP-3 [K45N, V47T, P56N, G58T, K94N, E96T, R138T] (SEQ ID NO:4) (protein)
chain: CTCSPSHPQDAFCNSDIVIRANVTGKKLVKEGNFTTLVYTIKQMKMYRGFTKMPHVQYIHTEASESLCGLNLTVNKYQYLLTGRVYDGKMYTGLCNFVERWDQLTLSQRKGLNYTYHLGCNCKIKSCYYLPCFVTSKNECLWTDMLSNFGYPGYQSKHYACIRQKGGYCSWYRGWAPPDKSIINATDP
modifications: 4 engineered N-linked glycosylation sites (# EG, Table 2)
As to B1, the shift in MMP2 inhibitory activity (fold decrease) as compared to wild-type (fold decrease vs wild-type) with MMP2 [3] is 1. The shift in MMP9 inhibitory activity (fold decrease) as compared to wild-type (fold decrease vs wild-type) with MMP9 [4] was 9.

B2: TIMP-3 [K50N, V52T, K94N, E96T, D110N, K112T, R138T, G173T] (SEQ ID NO:17) (protein)
chain: B1 chain with N22K, T24V, K27N, V29T, N33P, T35G, D87N, K89T, G150T
modifications: 5 engineered N-linked glycosylation sites (# EG, Table 2)
Regarding B2, the shift in TACE inhibitory activity (fold decrease) as compared to wild-type (fold decrease vs wild-type) in experiment [5] was found to be 2. In the experiment with MMP2 [3], the shift in MMP2 inhibitory activity (fold decrease) as compared to wild-type (fold decrease vs wild-type) was determined as 5. For the same molecule, the shift in MMP9 inhibitory activity (fold decrease) as compared to wild-type (fold decrease vs wild-type) in the experiment with MMP9 [4] worked out at 21.

B3: TIMP-3 [P56N, G58T, H78N, Q80T, K94N, E96T, R138T] (SEQ ID NO:20) (protein)
chain: B1 chain with N22K, T24V, H55N, Q57T
modifications: 4 engineered N-linked glycosylation sites (# EG, Table 2)
As for B3, the shift in MMP2 inhibitory activity (fold decrease) as compared to wild-type (fold decrease vs wild-type) with MMP2 [3] was 2. The shift in MMP9 inhibitory activity (fold decrease) as compared to wild-type (fold decrease vs wild-type) with MMP9 [4] came to 15.

B4: TIMP-3 [H78N, Q80T, K94N, E96T, D110N, K112T, R138T] (SEQ ID NO:26) fused to Fc (Fc fusion, not shown: a dimerising Fc or GST)
chain: B1 chain with N22K, T24V, N33P, T35G, H55N, Q57T, D87N, K89T
On to B4, for which, in the experiment with MMP2 [3], the MMP2 EC50 (inhibition of MMP activity, FRET peptide substrate) is 13.3 nM. The MMP9 EC50 (inhibition of MMP activity, FRET peptide substrate) with MMP9 [4] came to 32.9 nM.

B5: TIMP-3 [K50N, V52T, K94N, E96T, D110N, K112T, R138T] (SEQ ID NO:16) (protein)
chain: B1 chain with N22K, T24V, K27N, V29T, N33P, T35G, D87N, K89T
modifications: 4 engineered N-linked glycosylation sites (# EG, Table 2)
Take B5: in [5], the shift in TACE inhibitory activity (fold decrease) as compared to wild-type (fold decrease vs wild-type) was 0.6. Also, the shift in MMP2 inhibitory activity (fold decrease) as compared to wild-type (fold decrease vs wild-type) with MMP2 [3] was 3. Further, the shift in MMP9 inhibitory activity (fold decrease) as compared to wild-type (fold decrease vs wild-type) with MMP9 [4] was 10.

B6: TIMP-3 [P56N, G58T, K94N, E96T, D110N, K112T, R138T] (SEQ ID NO:22) (protein)
chain: B1 chain with N22K, T24V, D87N, K89T
modifications: 4 engineered N-linked glycosylation sites (# EG, Table 2)
Regarding B6, in the experiment with MMP2 [3], the shift in MMP2 inhibitory activity (fold decrease) as compared to wild-type (fold decrease vs wild-type) turned out to be 2. The shift in MMP9 inhibitory activity (fold decrease) as compared to wild-type (fold decrease vs wild-type) in the experiment with MMP9 [4] stood at 20.

B7: TIMP-3 [P56N, G58T K94N, E96T, Q126N, R138T] (SEQ ID NO:21) (protein)
chain: B1 chain with N22K, T24V, Q103N
modifications: 4 engineered N-linked glycosylation sites (# EG, Table 2)
In the case of B7, in the experiment with MMP2 [3], the shift in MMP2 inhibitory activity (fold decrease) as compared to wild-type (fold decrease vs wild-type) came out at 2. The shift in MMP9 inhibitory activity (fold decrease) as compared to wild-type (fold decrease vs wild-type) with MMP9 [4] was 22.

B8: TIMP-3 [K45S, F57N, K94N, E96T, D110N, K112T, R138T] (SEQ ID NO:12) (protein)
chain: B1 chain with N22S, T24V, N33P, F34N, T35G, D87N, K89T
modifications: 4 engineered N-linked glycosylation sites (# EG, Table 2)
As for B8, in the experiment with MMP2 [3], the shift in MMP2 inhibitory activity (fold decrease) as compared to wild-type (fold decrease vs wild-type) turned out to be 3. Besides, the shift in MMP9 inhibitory activity (fold decrease) as compared to wild-type (fold decrease vs wild-type) with MMP9 [4] came out at 74.

B9: TIMP-3 [K50N, V52T P56N, G58T, K94N, E96T, D110N, K112T, R138T] (SEQ ID NO:14) (protein)
chain: B1 chain with N22K, T24V, K27N, V29T, D87N, K89T
modifications: 5 engineered N-linked glycosylation sites (# EG, Table 2)
As for B9, the shift in MMP2 inhibitory activity (fold decrease) as compared to wild-type (fold decrease vs wild-type) with MMP2 [3] was determined as 2. In addition, the shift in MMP9 inhibitory activity (fold decrease) as compared to wild-type (fold decrease vs wild-type) with MMP9 [4] was 19.

B10: TIMP-3 [K45N, V47T, F57N, K94N, E96T, D110N, K112T] (SEQ ID NO:6) (protein)
chain: B1 chain with N33P, F34N, T35G, D87N, K89T, T115R
modifications: 4 engineered N-linked glycosylation sites (# EG, Table 2)
As for B10, the shift in MMP2 inhibitory activity (fold decrease) as compared to wild-type (fold decrease vs wild-type) with MMP2 [3] came to 2. For the same molecule, in the experiment with MMP9 [4], the shift in MMP9 inhibitory activity (fold decrease) as compared to wild-type (fold decrease vs wild-type) amounted to 59.

B11: TIMP-3 [K45N, V47T, K94N, E96T, D110N, K112T, G173T] (SEQ ID NO:10) (protein)
chain: B1 chain with N33P, T35G, D87N, K89T, T115R, G150T
modifications: 4 engineered N-linked glycosylation sites (# EG, Table 2)
Regarding B11, the shift in TACE inhibitory activity (fold decrease) as compared to wild-type (fold decrease vs wild-type) in [5] came out at 2. In addition, in the experiment with MMP2 [3], the shift in MMP2 inhibitory activity (fold decrease) as compared to wild-type (fold decrease vs wild-type) came to 2. Also, the shift in MMP9 inhibitory activity (fold decrease) as compared to wild-type (fold decrease vs wild-type) with MMP9 [4] worked out at 9.

B12: TIMP-3 [K45N, V47T, F57N, K94N, E96T, R138T] (SEQ ID NO:7) (protein)
chain: B1 chain with N33P, F34N, T35G
modifications: 4 engineered N-linked glycosylation sites (# EG, Table 2)
As to B12, the shift in MMP2 inhibitory activity (fold decrease) as compared to wild-type (fold decrease vs wild-type) in the experiment with MMP2 [3] worked out at 2. In the experiment with MMP9 [4], the shift in MMP9 inhibitory activity (fold decrease) as compared to wild-type (fold decrease vs wild-type) stood at 38.

B13: TIMP-3 [H78N, Q80T, K94N, E96T, D110N, K112T, R138T] (SEQ ID NO:26) (other)
chain: B1 chain with N22K, T24V, N33P, T35G, H55N, Q57T, D87N, K89T
modifications: 4 engineered N-linked glycosylation sites (# EG, Table 2)
As to B13, the “shift in MMP2 inhibitory activity (fold decrease) as compared to wild-type” value with MMP2 [6] is 2 fold decrease vs wild-type. In addition, in the experiment with MMP9 [7], the “shift in MMP9 inhibitory activity (fold decrease) as compared to wild-type” value was 6 fold decrease vs wild-type. Besides, the “shift in TACE inhibitory activity (fold decrease) as compared to wild-type” value in experiment [8] is 0.4 fold decrease vs wild-type. The “MMP2 EC50 (inhibition of MMP activity, FRET peptide substrate)” value with MMP2 [9] turned out to be 1 nM. In addition, the “MMP9 EC50 (inhibition of MMP activity, FRET peptide substrate)” value with MMP9 [10] was determined as 2.5 nM.

B14: N-TIMP3 fused to Fc (Fc fusion, part only; not given: Fc carrier, unspecified, part only)
chain, part: CTCSPSHPQDAFCNSDIVIRAKVVGKKLVKEGPFGTLVYTIKQMKMYRGFTKMPHVQYIHTEASESLCGLKLEVNKYQYLLTGRVYDGKMYTGLCNFVERWDQLTLSQRKGLNYRYHLGCN
B14 returned an MMP2 EC50 (inhibition of MMP activity, FRET peptide substrate) in the experiment with MMP2 [3] of 6.9 nM. The MMP9 EC50 (inhibition of MMP activity, FRET peptide substrate) with MMP9 [4] was determined as 1.6 nM.

B15: N-TIMP3 (N-terminal TIMP-3 domain, AA 1-144) (other)
chain: B14 chain, part
For B15, the “MMP2 EC50 (inhibition of MMP activity, FRET peptide substrate)” value with MMP2 [9] worked out at 7.6 nM. Further, the “MMP9 EC50 (inhibition of MMP activity, FRET peptide substrate)” value with MMP9 [10] is 1.7 nM.
